The target of data set [1] is T1, Myc-RTA (IVT) (Kaposi's sarcoma-associated herpesvirus …, UniProt F5HCV3 1-691). As to the kind of experiment: EMSA.
The target in data set [2] is T1, Myc-RTA (IVT). As to the kind of experiment: EMSA. This is another data set of the same source.

This is an account of results in paper PMC5868747.

Read-outs that look alike come from different tables or passages of the source.

T1 sequence (F5HCV3 whole entry): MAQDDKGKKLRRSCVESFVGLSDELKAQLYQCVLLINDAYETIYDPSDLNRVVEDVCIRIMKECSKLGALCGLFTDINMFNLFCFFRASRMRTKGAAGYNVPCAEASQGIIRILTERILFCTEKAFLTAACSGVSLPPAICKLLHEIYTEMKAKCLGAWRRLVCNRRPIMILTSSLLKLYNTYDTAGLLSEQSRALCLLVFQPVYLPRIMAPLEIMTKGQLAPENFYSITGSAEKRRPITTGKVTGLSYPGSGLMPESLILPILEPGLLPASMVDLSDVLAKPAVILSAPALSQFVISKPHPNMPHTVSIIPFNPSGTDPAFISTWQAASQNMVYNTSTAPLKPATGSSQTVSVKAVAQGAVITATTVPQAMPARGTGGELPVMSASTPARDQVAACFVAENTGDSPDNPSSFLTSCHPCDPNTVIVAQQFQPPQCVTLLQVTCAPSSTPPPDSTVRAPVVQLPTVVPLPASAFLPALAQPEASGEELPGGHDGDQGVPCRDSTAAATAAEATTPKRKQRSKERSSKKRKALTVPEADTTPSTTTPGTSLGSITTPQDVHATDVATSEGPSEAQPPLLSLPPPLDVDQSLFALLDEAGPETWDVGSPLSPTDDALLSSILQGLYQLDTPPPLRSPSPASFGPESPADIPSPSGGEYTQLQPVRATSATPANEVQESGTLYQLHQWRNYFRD

B1: 59pF (minimal RRE) (dsDNA)
DNA 1: CGATTTGTGAAGGTTAACCTGTCCATG
DNA 2: CATGGACAGGTTAACCTTCACAAATCG
As to B1, in data set [1], the binding result is listed as “binds”.

B2: 59pA (dsDNA)
DNA 1: ACACCACGTGTGTGACTGACGATTTGTGAAGGTTAACCTGTCCATGTCGC
DNA 2: GCGACATGGACAGGTTAACCTTCACAAATCGTCAGTCACACACGTGGTGT
As to B2, in data set [2], the binding result is reported as “binds”.
